Data published in US20230312755A1 (ANGITIA, published 2023).
Numbering of substitutions follows the chain as printed.

Legend:
[1] = target: T1, His-tagged human Sclerostin (NCBI reference No. NP_079513.1) (human, UniProt Q9BQB4 24-213); test: ELISA, plate coated with His-tagged human Sclerostin
T1 construct: also called mouse His-tagged human Sclerostin; not shown: His tag
T1 sequence: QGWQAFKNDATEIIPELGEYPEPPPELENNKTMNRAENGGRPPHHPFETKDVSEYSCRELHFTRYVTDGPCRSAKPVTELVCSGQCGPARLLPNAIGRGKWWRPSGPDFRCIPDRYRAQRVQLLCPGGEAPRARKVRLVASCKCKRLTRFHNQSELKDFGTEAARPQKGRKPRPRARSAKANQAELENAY
Protocol: The ability of antibodies to specifically bind Sclerostin was determined by an ELISA capture assay. Plates were coated, in a 96-well half-area, with 100 μl/well of mouse His-tagged human Sclerostin (NCBI reference No. is NP_079513.1) [[…]], in coating buffer (PBS, pH 7.4), and incubated at RT for one hour, or 4° C. overnight. The plates were washed once with 100 μl/well of washing solution (PBS containing 0.2% Tween20, BIO-RAD). Plates were then incubated in blocking solution (PBS containing 1% BSA, 1% goat serum and 0.5% Tween20; 100 μl/well) for one hour at room temperature (RT). Anti-Sclerostin antibodies at various concentrations (1000, 333.3, 111.1, 37.0, 12.3, 4.1, 1.4, 0.5, 0.15, 0.05 ng/ml), a positive control antibody Romosozumab or non-Sclerostin related IgG (human or rat IgG, negative control), were then added to each well in 20 μl/well of blocking solution, and plates were incubated at RT for one hour. NeutrAvidin HRP (Pierce, Catalog #31001) diluted in blocking solution (1:50,000 dilution) was added at to each well ([…]), and the plates were incubated at RT for one hour prior to three washes with […] of washing solution. SuperSignal ELISA Femto (ThermoFisher Scientific, Catalog #37074) working solution was added to the plates ([…]), and the signal was read using a luminometer at 425 nm.

human Sclerostin [2] = target: T2, human Sclerostin (human, UniProt Q9BQB4 24-213); test: cell-based or functional assay
T2 sequence: T1 sequence

human DKK1 [3] = target: T3, human DKK1 (human, UniProt O94907 32-266); test: cell-based or functional assay
T3 sequence (looked up): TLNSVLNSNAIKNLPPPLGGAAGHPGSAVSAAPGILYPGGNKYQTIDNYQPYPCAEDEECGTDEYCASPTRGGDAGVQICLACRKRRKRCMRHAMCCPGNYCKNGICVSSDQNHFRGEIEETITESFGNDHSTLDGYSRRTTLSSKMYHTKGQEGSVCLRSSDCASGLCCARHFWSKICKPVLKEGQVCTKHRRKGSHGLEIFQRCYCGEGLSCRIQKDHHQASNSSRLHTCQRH

human Sclerostin [4] = target: T2, human Sclerostin; test: cell-based or functional assay; remark: listed apart in the source
human DKK1 [5] = target: T3, human DKK1; test: BLI (Gator), antibody on anti-hFc biosensor, antigen as analyte, 1:1 global fit
Protocol: (§1) Binding kinetics and affinities of anti-Sclerostin×anti-DKK1 and anti-Sclerostin×anti-RANKL bispecific antibodies were measured with Gator (Probe Life) bio-layer interferometry (BLI). Antibodies were immobilized on an anti-hFc biosensor, using a 5 μg/ml solution. Serial dilutions of sclerostin (from 1 μg/ml), DKK1 (from 2 μg/ml), or RANKL (from 4 μg/ml) by two folds in kinetics buffer (PBS, pH 7.4, 0.05% Tween-20, 0.2% BSA) were used as the analytes. Affinity (KD) and kinetic parameters (Kₒₙ and Koff) were calculated from a global fit (1:1) of the data using the Gator software.

human Sclerostin [6] = target: T2, human Sclerostin; test: as above
Protocol: as §1

human Sclerostin [7] = target: T2, human Sclerostin; test: BLI (Gator), antibody on anti-hFc biosensor, antigen as analyte; koff at LOD, KD estimated
Protocol: as §1

[8] = target: T4, cynomolgus monkey Sclerostin (cynomolgus monkey, UniProt Q9BG78 24-213 (Chlorocebus aethiops entry)); test: BLI (Gator), antibody on anti-hFc biosensor, Sclerostin as analyte, 1:1 global fit
T4 chain: T1 sequence with E26D, P70Q, E129A, T161P, S178G
Protocol: (§2) The binding affinity of humanized anti-Sclerostin antibodies to human and cynomolgus monkey Sclerostin were determined with bio-layer interferometry using a Gator instrument (Probe Life). Antibodies were immobilized on an anti-hFc biosensor, using a […]. Serial dilutions of human Sclerostin and cynomolgus monkey Sclerostin from 4 μg/ml by two folds in kinetics buffer (PBS, pH 7.4, 0.05% Tween-20, 0.2% BSA, 10 μM biotin) were used as the analytes. Affinity (KD) and kinetic parameters (Kₒₙ and Koff) were calculated from a global fit (1:1) of the data using the Gator software.

human Sclerostin [9] = target: T2, human Sclerostin; test: as above
Protocol: as §2

B1: 65B12C9 (antibody, V domains shown)
VH: QVQLQQPGAELVKPGASVKLSCKASGYTFTSYWMHWVKQRPGQGLEWIGMIHPNSGSSNYNEKFKSKATLTVDKSSSTAYMQLSSLTSEDSAVYYCANDYDDEGFAYWGQGTLVTVSA
VL: SIVMTQTPKFLLVSAGDRVTITCKASQSVSNDVAWYQQKPGQSPKLLIYYASNRCTGVPDRFTGSGYGTDFTFTISTVQAEDLAVYFCQQDYSSPWTFGGGTKLEIK
notes: Murine monoclonal antibody from a hybridoma
EC50 [1]: 0.04 nM | EC50, Sclerostin-neutralisation activity in HEK293/TCF/LEF/Wnt1 cells (luciferase reporter) (human Sclerostin [2]): 152 nM

B2: BAP0037 (bispecific antibody, human IgG4 S228P, kappa)
heavy: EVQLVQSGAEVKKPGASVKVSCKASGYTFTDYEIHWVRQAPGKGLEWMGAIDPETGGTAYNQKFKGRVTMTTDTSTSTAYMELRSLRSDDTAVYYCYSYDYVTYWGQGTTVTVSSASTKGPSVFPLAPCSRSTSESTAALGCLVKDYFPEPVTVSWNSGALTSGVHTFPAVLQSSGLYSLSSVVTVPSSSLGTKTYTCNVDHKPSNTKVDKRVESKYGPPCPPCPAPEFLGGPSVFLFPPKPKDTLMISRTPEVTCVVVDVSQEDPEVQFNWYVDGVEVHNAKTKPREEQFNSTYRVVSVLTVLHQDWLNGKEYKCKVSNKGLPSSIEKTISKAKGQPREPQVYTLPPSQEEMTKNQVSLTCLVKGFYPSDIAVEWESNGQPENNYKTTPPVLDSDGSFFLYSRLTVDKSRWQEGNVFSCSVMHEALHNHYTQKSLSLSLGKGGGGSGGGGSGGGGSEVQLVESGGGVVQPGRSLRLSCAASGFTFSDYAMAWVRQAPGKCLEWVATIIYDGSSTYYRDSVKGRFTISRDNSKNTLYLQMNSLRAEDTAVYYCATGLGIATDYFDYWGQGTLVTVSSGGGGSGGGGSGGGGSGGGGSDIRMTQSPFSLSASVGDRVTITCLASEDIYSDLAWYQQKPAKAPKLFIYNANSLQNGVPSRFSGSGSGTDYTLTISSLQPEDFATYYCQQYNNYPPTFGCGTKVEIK
light: DIQMTQSPSSLSASVGDRVTITCRSSQSLLYSDGRTYLNWYQQKPGKSPKRLIYLVSKLDSGVPDRFSGSGSGTDFTLTISSLQPEDFATYYCWQGTHLPHTFGGGTKVEIKRTVAAPSVFIFPPSDEQLKSGTASVVCLLNNFYPREAKVQWKVDNALQSGNSQESVTEQDSKDSTYSLSSTLTLSKADYEKHKVYACEVTHQGLSSPVTKSFNRGEC
notes: Anti-DKK1 scFv (VH-VL) fused to the C-terminus of the heavy chains of the anti-Sclerostin full length antibody (hAb-2)
EC50, DKK1 neutralization activity in HEK293/TCF/LEF/Wnt1 reporter gene assay (human DKK1 [3]): 24.1 nM | EC50, Sclerostin neutralization activity in HEK293/TCF/LEF/Wnt1 reporter gene assay (human Sclerostin [4]): 23.6 nM | Kd (human DKK1 [5]): 1.01 nM | koff (human DKK1 [5]): 0.000301 s⁻¹ | kon (human DKK1 [5]): 297000 M⁻¹ s⁻¹ | kon (human Sclerostin [6]): 1.88e+06 M⁻¹ s⁻¹ | Kd (human Sclerostin [7]): ~0.01 nM

B3: hAb-1 (antibody, V domains shown)
VH: EVQLVQSGAEVKKPGASVKVSCKASGYTFTDYEIHWVRQAPGKGLEWMGAIDPETGGTAYNQKFKGRVTMTTDTSTSTAYMELRSLRSDDTAVYYCYSYDYVTYWGQGTTVTVSS
VL: DVVMTQSPLSLSVSPGERASLSCKSSQSLLYSDGRTYLNWYLQKPGQSPQRLIYLVSKLDSGVPDRFSGSGSGTDFTLKISRVQSEDVGVYYCWQGTHLPHTFGGGTKVEIK
notes: Humanized 93B1B7; also called humanized anti-Sclerostin antibody hAb-1
EC50, Sclerostin-neutralisation activity in HEK293/TCF/LEF/Wnt1 cells (luciferase reporter) (human Sclerostin [2]): 13.9 nM | Kd [8]: 0.18 nM | koff [8]: 0.000229 s⁻¹ | kon [8]: 1.28e+06 M⁻¹ s⁻¹ | Kd (human Sclerostin [9]): 0.41 nM | koff (human Sclerostin [9]): 0.0003 s⁻¹ | kon (human Sclerostin [9]): 730000 M⁻¹ s⁻¹

B4: hAb-3 (antibody, V domains shown)
VH: B3 VH
VL: DIQMTQSPSSLSASVGDRVTITCRSSQSLLYSDSRTYLNWLQQKPGKSPKRLIYLVSKLDSGVPDRFSGSGSGTDFTLTISSLQPEDFATYYCWQGTHLPHTFGGGTKVEIK
EC50, Sclerostin-neutralisation activity in HEK293/TCF/LEF/Wnt1 cells (luciferase reporter) (human Sclerostin [2]): 15.1 nM

B5: Romosozumab (antibody, V domains shown)
VH: EVQLVQSGAEVKKPGASVKVSCKASGYTFTDYNMHWVRQAPGQGLEWMGEINPNSGGAGYNQKFKGRVTMTTDTSTSTAYMELRSLRSDDTAVYYCARLGYDDIYDDWYFDVWGQGTTVTVSS
VL: DIQMTQSPSSLSASVGDRVTITCRASQDISNYLNWYQQKPGKAPKLLIYYTSRLLSGVPSRFSGSGSGTDFTLTISSLQPEDFATYYCQQGDTLPYTFGGGTKVEIK
Kd [8]: 0.35 nM | koff [8]: 0.000239 s⁻¹ | kon [8]: 755000 M⁻¹ s⁻¹

B6: BAP0039 (bispecific antibody, human IgG4 S228P, kappa)
heavy: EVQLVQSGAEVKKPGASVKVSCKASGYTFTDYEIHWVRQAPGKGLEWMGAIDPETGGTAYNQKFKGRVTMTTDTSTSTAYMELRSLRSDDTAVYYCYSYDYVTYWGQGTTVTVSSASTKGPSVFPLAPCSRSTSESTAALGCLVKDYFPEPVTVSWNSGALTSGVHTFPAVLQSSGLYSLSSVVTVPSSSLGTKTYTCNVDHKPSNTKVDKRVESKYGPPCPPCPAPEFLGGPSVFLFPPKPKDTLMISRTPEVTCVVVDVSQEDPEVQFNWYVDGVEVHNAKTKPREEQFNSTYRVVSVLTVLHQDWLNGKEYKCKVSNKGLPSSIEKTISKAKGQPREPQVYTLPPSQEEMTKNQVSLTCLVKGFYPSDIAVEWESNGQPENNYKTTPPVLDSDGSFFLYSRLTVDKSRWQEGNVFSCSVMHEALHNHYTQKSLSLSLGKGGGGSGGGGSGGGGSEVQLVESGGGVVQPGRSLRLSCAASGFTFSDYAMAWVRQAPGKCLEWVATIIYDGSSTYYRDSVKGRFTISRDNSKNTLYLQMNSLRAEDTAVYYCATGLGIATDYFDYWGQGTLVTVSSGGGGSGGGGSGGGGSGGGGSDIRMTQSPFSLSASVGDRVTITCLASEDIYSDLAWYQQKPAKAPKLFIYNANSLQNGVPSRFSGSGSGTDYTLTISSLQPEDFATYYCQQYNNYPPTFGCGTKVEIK
light: DVVMTQSPLSLSVSPGERASLSCKSSQSLLYSDGRTYLNWYLQKPGQSPQRLIYLVSKLDSGVPDRFSGSGSGTDFTLKISRVQSEDVGVYYCWQGTHLPHTFGGGTKVEIKRTVAAPSVFIFPPSDEQLKSGTASVVCLLNNFYPREAKVQWKVDNALQSGNSQESVTEQDSKDSTYSLSSTLTLSKADYEKHKVYACEVTHQGLSSPVTKSFNRGEC
notes: Anti-DKK1 scFv (VH-VL) fused to the C-terminus of the heavy chains of the anti-Sclerostin full length antibody (hAb-1)
EC50, DKK1 neutralization activity in HEK293/TCF/LEF/Wnt1 reporter gene assay (human DKK1 [3]): 20.9 nM | EC50, Sclerostin neutralization activity in HEK293/TCF/LEF/Wnt1 reporter gene assay (human Sclerostin [4]): 26.7 nM | Kd (human DKK1 [5]): 0.14 nM | koff (human DKK1 [5]): 4.32e-05 s⁻¹ | kon (human DKK1 [5]): 309000 M⁻¹ s⁻¹ | Kd (human Sclerostin [6]): 0.052 nM | koff (human Sclerostin [6]): 9.74e-05 s⁻¹ | kon (human Sclerostin [6]): 1.88e+06 M⁻¹ s⁻¹

B7: 91F6D10 (antibody, V domains shown)
VH: QVQLQQSGAELVRPGASVTLSCKASGYTFTDYEMHWVKQTPVHGLEWIGAIDPETGGTAYNQKFKAKAILTADRSSSTAYMELRSLTSEDSAVYYCFSYDYVSYWGQGTLVTVSA
VL: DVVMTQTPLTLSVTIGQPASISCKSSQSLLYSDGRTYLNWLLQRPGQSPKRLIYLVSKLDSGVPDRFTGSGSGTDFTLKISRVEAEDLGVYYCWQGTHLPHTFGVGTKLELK
notes: as for B1
EC50 [1]: 0.06 nM | EC50, Sclerostin-neutralisation activity in HEK293/TCF/LEF/Wnt1 cells (luciferase reporter) (human Sclerostin [2]): 60.6 nM

B8: 51E8D4 (antibody, V domains shown)
VH: B7 VH with Y32F, M34I, V37M, H43P, A66G, I69L, R74K, E82D, Y95F
VL: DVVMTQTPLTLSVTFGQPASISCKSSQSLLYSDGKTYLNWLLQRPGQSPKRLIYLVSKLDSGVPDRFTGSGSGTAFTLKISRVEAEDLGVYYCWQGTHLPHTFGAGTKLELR
notes: as for B1
EC50 [1]: 0.07 nM | EC50, Sclerostin-neutralisation activity in HEK293/TCF/LEF/Wnt1 cells (luciferase reporter) (human Sclerostin [2]): 63.4 nM

B9: 71G6G8 (antibody, V domains shown)
VH: B7 VH with V2A, M34I, A66G, M81L, S103T, S114T
VL: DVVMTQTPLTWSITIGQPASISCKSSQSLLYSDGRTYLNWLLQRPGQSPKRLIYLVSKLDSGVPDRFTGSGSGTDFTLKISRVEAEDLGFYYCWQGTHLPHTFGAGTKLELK
notes: Murine anti-Sclerostin monoclonal antibody
EC50 [1]: 0.04 nM | EC50, Sclerostin-neutralisation activity in HEK293/TCF/LEF/Wnt1 cells (luciferase reporter) (human Sclerostin [2]): 67.4 nM

B10: 84F2D5 (antibody, V domains shown)
VH: B7 VH with Y32F, M34I, V37L, H43P, A66G, I69L, R74K
VL: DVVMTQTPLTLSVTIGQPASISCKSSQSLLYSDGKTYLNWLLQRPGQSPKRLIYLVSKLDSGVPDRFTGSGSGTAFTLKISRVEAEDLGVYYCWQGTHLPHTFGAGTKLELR
notes: as for B1
EC50 [1]: 0.02 nM | EC50, Sclerostin-neutralisation activity in HEK293/TCF/LEF/Wnt1 cells (luciferase reporter) (human Sclerostin [2]): 59.4 nM

B11: 56E5C10 (antibody, V domains shown)
VH: B7 VH with Y32F, K65T
VL: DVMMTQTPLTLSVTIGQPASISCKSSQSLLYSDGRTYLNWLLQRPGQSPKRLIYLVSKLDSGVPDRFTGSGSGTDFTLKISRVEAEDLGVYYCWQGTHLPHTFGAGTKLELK
notes: as for B1
EC50 [1]: 0.09 nM | EC50, Sclerostin-neutralisation activity in HEK293/TCF/LEF/Wnt1 cells (luciferase reporter) (human Sclerostin [2]): 64.2 nM

B12: 97C11D7 (antibody, V domains shown)
VH: B7 VH with T58S, Y60N
VL: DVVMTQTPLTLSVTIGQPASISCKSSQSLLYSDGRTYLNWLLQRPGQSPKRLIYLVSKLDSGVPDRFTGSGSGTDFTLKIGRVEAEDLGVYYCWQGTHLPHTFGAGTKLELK
notes: as for B1
EC50 [1]: 0.04 nM | EC50, Sclerostin-neutralisation activity in HEK293/TCF/LEF/Wnt1 cells (luciferase reporter) (human Sclerostin [2]): 55.4 nM

B13: 94B12D3 (antibody, V domains shown)
VH: B7 VH with M34I, C96S
VL: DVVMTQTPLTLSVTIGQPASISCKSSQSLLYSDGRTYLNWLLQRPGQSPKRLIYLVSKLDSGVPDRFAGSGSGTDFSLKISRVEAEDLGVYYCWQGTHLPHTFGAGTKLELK
notes: as for B1
EC50 [1]: 0.04 nM | EC50, Sclerostin-neutralisation activity in HEK293/TCF/LEF/Wnt1 cells (luciferase reporter) (human Sclerostin [2]): 62.8 nM

B14: 81B2B6 (antibody, V domains shown)
VH: B7 VH
VL: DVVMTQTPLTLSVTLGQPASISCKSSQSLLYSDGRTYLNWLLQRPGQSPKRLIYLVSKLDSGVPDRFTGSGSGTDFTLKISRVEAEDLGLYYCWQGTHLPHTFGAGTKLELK
notes: as for B1
EC50 [1]: 0.01 nM | EC50, Sclerostin-neutralisation activity in HEK293/TCF/LEF/Wnt1 cells (luciferase reporter) (human Sclerostin [2]): 59.6 nM
